The results in this text go back to US7129332.

The target of assay [1] is EGFRvIII (mutant epidermal growth factor receptor) on NR6M cells (human) (UniProt P00533). In words: cell-based or functional assay.
For assay [2], the target named is EGFRvIII peptide (…-biotin). In words: SPR (BIAcore), biotinylated peptide on streptavidin chip, immunotoxin injected.

The term Kd denotes the concentration at which binding is half-saturated. Read a high Kd as lower affinity.

On to “MR1(Fv)-PE38 (from UniProt P11439 278-389; P11439 406-638) (scFv)”, for which, in assay [1], the IC50, cytotoxic activity, Experiment 1 was 9.2 ng/mL; the IC50, cytotoxic activity, Experiment 2 was 6.6 ng/mL; the IC50, cytotoxicity (inhibition of [3H]-leucine incorporation) on NR6M cells is 8 ng/mL. In addition, in assay [2], the Kd was determined as 8 nM.
